Reference: the supplement of paper PMC6757056
± gives the standard deviation of the averaged measurements.

B1: library; a variant is named by its letters at N, in order (parent)
chain: GCUGUCACCGGUGCUUGGUACGUUAUAUUCAGCCGGUCUGAUGAGUCUNNNNNNAGACGAAACAGC

Legend:
(6R,S)-folinic acid [1] = variants of: B1; assay: FACS-Seq fitted mean relative fluorescence mCherry/BFP without ligand (log10 relative fluorescence); HEK293T overexpressing SLC46A1; higher = higher reporter protein expression; conditions: without (6R,S)-folinic acid; ligand present: no
Method in brief: (§1)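 An mCherry reporter containing the ribozyme switch and an EF1α-BFP marker were introduced by lentivirus into HEK293T libraries. Cells were enriched, incubated 48 h with or without ligand, sorted into 6 bins by mCherry/BFP, and bin genomic DNA was PCR-amplified, barcoded and sequenced on MiSeq. Fluorescence represents the normalized fitted normal mean of the bin counts. Fitting was done on log10(mCherry/BFP), scaling to five spiked-in control ribozymes.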

(6R,S)-folinic acid [2] = variants of: B1; assay: normalized RNA/DNA level without ligand (relative to sTRSVctl = 100) (log10 (% of sTRSVctl)); HEK293T overexpressing SLC46A1; higher = less ribozyme self-cleavage, higher mRNA level; conditions: without (6R,S)-folinic acid; ligand present: no
Method in brief: (§2)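 Library plasmids encoding reporter-linked ribozyme switches (mCherry, or eGFP for some folinic acid experiments) were transfected into HEK293T at 4 µg per 6-well well. Ligand, when used, was added 1 h before transfection. Total RNA was extracted with EDTA 72 h later, then reverse-transcribed, amplified, barcoded and sequenced. RNA level was RNA reads over DNA reads, divided by a spiked-in non-cleaving control (or the top 25 sequences), ×100, log10; only sequences with ≥100 DNA reads were kept.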

(6R,S)-folinic acid [3] = variants of: B1; assay: FACS-Seq fitted mean relative fluorescence mCherry/BFP with ligand (log10 relative fluorescence); HEK293T overexpressing SLC46A1; ligand concentration (+) FACS-Seq: 6 mM; higher = higher reporter protein expression; conditions: with (6R,S)-folinic acid; ligand present: yes
Method in brief: as §1

(6R,S)-folinic acid [4] = variants of: B1; assay: normalized RNA/DNA level with ligand (relative to sTRSVctl = 100) (log10 (% of sTRSVctl)); HEK293T overexpressing SLC46A1; ligand concentration (+) RNA-Seq: 6 mM; higher = less ribozyme self-cleavage, higher mRNA level; conditions: with (6R,S)-folinic acid; ligand present: yes
Method in brief: as §2

Row | Variant | FACS-Seq fitted mean (log10) ((6R,S)-folinic acid [1]) | normalized RNA/DNA level without ligand (log10) ((6R,S)-folinic acid [2]) | FACS-Seq fitted mean (log10) ((6R,S)-folinic acid [3]) | normalized RNA/DNA level with ligand (log10) ((6R,S)-folinic acid [4])
1 | UAGAGC | 0.0862 ± 0.082 | 1.93 ± 0.022 | 0.445 ± 0.031 | 1.99 ± 0.048
2 | CGGAAU | 0.329 ± 0.016 | 1.97 ± 0.022 | 0.208 ± 0.2 | 2.02 ± 0.034
3 | CGGUUA | 0.594 ± 0.087 | 1.9899 ± 0.00027 | 0.531 ± 0.12 | 2.02 ± 0.056
4 | UCGGCU | 0.288 ± 0.09 | 2.08 ± 0.024 | 0.415 ± 0.31 | 2.06 ± 0.053
5 | CAAUAA | 0.248 ± 0.034 | 1.934 ± 0.017 | 0.463 ± 0.091 | 1.97 ± 0.031
6 | CGUUGC | 0.557 ± 0.049 | 2.02 ± 0.025 | 0.358 ± 0.33 | 2.02 ± 0.047
7 | UGACGC | 0.28 ± 0.091 | 2.017 ± 0.0099 | 0.284 ± 0.026 | 2.033 ± 0.017
8 | AAAUGA | 0.485 ± 0.018 | 1.963 ± 0.005 | 0.406 ± 0.022 | 2.04 ± 0.044
9 | GCUGCC | 0.382 ± 0.084 | 2.08 ± 0.0024 | 0.484 ± 0.32 | 2.042 ± 0.0033
10 | UUAAGA | 0.166 ± 0.039 | 1.95 ± 0.024 | 0.272 ± 0.014 | 2.04 ± 0.029
11 | UAUCAU | 0.312 ± 0.043 | 1.954 ± 0.0086 | -0.0472 ± 0.12 | 1.99 ± 0.041
12 | CGAGUG | 0.389 ± 0.14 | 1.964 ± 0.0042 | 0.341 ± 0.17 | 2.01 ± 0.032
13 | UAAAAA | 0.254 ± 0.059 | 1.9232 ± 0.0015 | 0.164 ± 0.11 | 1.98 ± 0.024
14 | AAGUCG | -0.00669 ± 0.0044 | 1.978 ± 0.0045 | 0.183 ± 0.19 | 2.0217 ± 0.00076
15 | UGAAAU | 0.196 ± 0.11 | 1.81 ± 0.027 | 0.516 ± 0.39 | 1.97 ± 0.027
16 | UAACAA | 0.381 ± 0.053 | 1.95 ± 0.02 | 0.18 ± 0.0065 | 2 ± 0.037
17 | UGAUGG | 0.038 ± 0.0089 | 1.625 ± 0.0082 | 0.583 ± 0.093 | 1.91 ± 0.038
18 | UGAUGU | 0.318 ± 0.071 | 1.93 ± 0.021 | 0.125 ± 0.22 | 2.02 ± 0.044
19 | UCAGAU | 0.523 ± 0.0091 | 1.95 ± 0.0075 | 0.201 ± 0.13 | 2.013 ± 0.011
20 | AGCAGA | 0.0194 ± 0.039 | 1.98 ± 0.0025 | -0.229 ± 0.27 | 2.02 ± 0.029
21 | GACUUG | 0.321 ± 0.035 | 1.956 ± 0.018 | 0.389 ± 0.13 | 1.99 ± 0.039
22 | UGGGAG | -0.0508 ± 0.0099 | 1.6 ± 0.025 | 0.331 ± 0.024 | 1.93 ± 0.078
23 | GUCGUA | 0.666 ± 0.21 | 2.0187 ± 0.00087 | 0.497 ± 0.34 | 2.01 ± 0.025
24 | AGUAAA | 0.22 ± 0.14 | 1.954 ± 0.013 | 0.344 ± 0.14 | 1.98 ± 0.041

Row | Variant | FACS-Seq fitted mean (log10) ((6R,S)-folinic acid [1]) | normalized RNA/DNA level without ligand (log10) ((6R,S)-folinic acid [2]) | FACS-Seq fitted mean (log10) ((6R,S)-folinic acid [3]) | normalized RNA/DNA level with ligand (log10) ((6R,S)-folinic acid [4])
25 | AUGACA | 0.187 ± 0.069 | 1.987 ± 0.0094 | 0.323 ± 0.037 | 2 ± 0.032
26 | GUACGA | 0.269 ± 0.031 | 2.0027 ± 0.0013 | 0.139 ± 0.31 | 2.04 ± 0.051
27 | CAUUUG | 0.428 ± 0.042 | 2.05 ± 0.0064 | 0.431 ± 0.069 | 2.06 ± 0.025
28 | UCCACG | 0.0965 ± 0.072 | 1.921 ± 0.0076 | 0.23 ± 0.091 | 2.01 ± 0.05
29 | CCUUAU | 0.278 ± 0.013 | 2.023 ± 0.0064 | 0.394 ± 0.22 | 2.05 ± 0.022
30 | CACCAU | 0.138 ± 0.12 | 1.9842 ± 0.00094 | 0.347 ± 0.13 | 2 ± 0.011
31 | GAGGUA | 0.345 ± 0.029 | 1.844 ± 0.015 | 0.341 ± 0.17 | 1.92 ± 0.033
32 | UGGGUG | -0.154 ± 0.034 | 1.687 ± 0.0083 | 0.261 ± 0.016 | 1.95 ± 0.057
33 | CGUGGA | 0.378 ± 0.16 | 1.988 ± 0.014 | 0.668 ± 0.33 | 2.02 ± 0.043
34 | ACUCAA | 0.314 ± 0.088 | 1.973 ± 0.015 | 0.365 ± 0.012 | 2 ± 0.028
35 | AACGUG | 0.4305 ± 0.0017 | 1.874 ± 0.0049 | 0.715 ± 0.2 | 1.98 ± 0.029
36 | UAUACU | 0.4 ± 0.2 | 1.9765 ± 0.0012 | 0.253 ± 0.07 | 1.99 ± 0.015
37 | GAGUCC | 0.0836 ± 0.051 | 2.04 ± 0.027 | 0.569 ± 0.064 | 2.04 ± 0.03
38 | AUUUAC | 0.138 ± 0.029 | 2.001 ± 0.018 | 0.497 ± 0.13 | 2.03 ± 0.026
39 | GAAAGG | 0.138 ± 0.034 | 1.902 ± 0.0036 | 0.0807 ± 0.19 | 2 ± 0.021
40 | AUCACA | 0.256 ± 0.074 | 2.004 ± 0.0041 | 0.0653 ± 0.038 | 2.02 ± 0.032
41 | UGUGGG | 0.109 ± 0.02 | 1.6031 ± 0.0006 | 0.695 ± 0.086 | 1.96 ± 0.017
42 | GUAGAG | 0.201 ± 0.057 | 1.759 ± 0.015 | 0.87 ± 0.12 | 1.98 ± 0.035
43 | GCGAAG | 0.477 ± 0.0095 | 1.947 ± 0.0035 | 0.576 ± 0.049 | 2.05 ± 0.0089
44 | GUUGUA | 0.281 ± 0.083 | 1.962 ± 0.011 | 0.415 ± 0.15 | 1.97 ± 0.05
45 | UUAGAA | 0.323 ± 0.038 | 1.913 ± 0.0022 | 0.278 ± 0.054 | 1.98 ± 0.038
46 | UUAGAG | 0.029 ± 0.12 | 1.7074 ± 0.0017 | 0.476 ± 0.11 | 1.95 ± 0.045
47 | GUUCGG | 0.155 ± 0.11 | 2.003 ± 0.0021 | 0.178 ± 0.021 | 1.985 ± 0.0024
48 | UUAAUG | 0.316 ± 0.0067 | 1.819 ± 0.0065 | 0.461 ± 0.14 | 1.97 ± 0.012

Row | Variant | FACS-Seq fitted mean (log10) ((6R,S)-folinic acid [1]) | normalized RNA/DNA level without ligand (log10) ((6R,S)-folinic acid [2]) | FACS-Seq fitted mean (log10) ((6R,S)-folinic acid [3]) | normalized RNA/DNA level with ligand (log10) ((6R,S)-folinic acid [4])
49 | CUCAAU | 0.0874 ± 0.13 | 1.97 ± 0.036 | 0.0541 ± 0.42 | 1.971 ± 0.011
50 | UUUGGG | 0.388 ± 0.062 | 1.71 ± 0.022 | 0.73 ± 0.13 | 1.94 ± 0.048
51 | ACGUGA | 0.282 ± 0.011 | 1.958 ± 0.012 | 0.173 ± 0.2 | 2.025 ± 0.015
52 | GCUCAC | 0.502 ± 0.15 | 2.046 ± 0.0078 | 0.372 ± 0.23 | 2.032 ± 0.01
53 | ACAUAA | -0.288 ± 0.045 | 1.9664 ± 0.00019 | -0.603 ± 0.1 | 1.996 ± 0.019
54 | CACUGG | 0.801 ± 0.11 | 1.962 ± 0.013 | 0.687 ± 0.052 | 2.03 ± 0.021
55 | UGGACC | 0.168 ± 0.11 | 2.01 ± 0.033 | 0.0739 ± 0.15 | 1.97 ± 0.033
56 | UGGACG | 0.175 ± 0.0034 | 1.778 ± 0.013 | 0.472 ± 0.059 | 1.97 ± 0.029
57 | GAUAGC | 0.145 ± 0.061 | 1.962 ± 0.017 | 0.257 ± 0.081 | 2.022 ± 0.015
58 | GAUAGA | 0.454 ± 0.051 | 1.959 ± 0.0082 | 0.537 ± 0.22 | 2 ± 0.021
59 | AACAAU | 0.338 ± 0.22 | 1.935 ± 0.0082 | 0.122 ± 0.3 | 1.97 ± 0.039
60 | GAUUUA | 0.4 ± 0.091 | 2.024 ± 0.019 | 0.664 ± 0.15 | 2.03 ± 0.021
61 | AAUGCG | 0.217 ± 0.13 | 1.839 ± 0.018 | 0.405 ± 0.11 | 2 ± 0.03
62 | UUGAAA | 0.358 ± 0.051 | 1.936 ± 0.014 | 0.286 ± 0.27 | 2.02 ± 0.028
63 | CACAUA | 0.25 ± 0.021 | 1.978 ± 0.0043 | 0.219 ± 0.3 | 2.02 ± 0.035
64 | GAAAUA | 0.624 ± 0.015 | 2.008 ± 0.007 | 0.26 ± 0.23 | 2.02 ± 0.038
65 | UUAUUG | 0.469 ± 0.069 | 1.82 ± 0.035 | 0.551 ± 0.16 | 1.97 ± 0.038
66 | CCAUGU | 0.369 ± 0.014 | 2.035 ± 0.018 | 0.222 ± 0.16 | 2.03 ± 0.04
67 | UCACCG | 0.426 ± 0.13 | 1.971 ± 0.006 | 0.151 ± 0.15 | 2.01 ± 0.03
68 | CAUAUG | 0.419 ± 0.028 | 2.026 ± 0.0042 | 0.496 ± 0.28 | 2.01 ± 0.023
69 | UCGUAC | 0.373 ± 0.053 | 2.032 ± 0.019 | 0.343 ± 0.14 | 2.049 ± 0.0073
70 | GUACUA | 0.314 ± 0.17 | 2.046 ± 0.0037 | 0.428 ± 0.14 | 2.04 ± 0.026
71 | AGCCUG | 0.71 ± 0.23 | 2.01 ± 0.027 | 0.405 ± 0.12 | 2.05 ± 0.051
